Reference: PMC5500506

Test system: T1, GdmRIII (Streptomyces autolyticus CGMCC0516), ORF:755639c7
T1 sequence: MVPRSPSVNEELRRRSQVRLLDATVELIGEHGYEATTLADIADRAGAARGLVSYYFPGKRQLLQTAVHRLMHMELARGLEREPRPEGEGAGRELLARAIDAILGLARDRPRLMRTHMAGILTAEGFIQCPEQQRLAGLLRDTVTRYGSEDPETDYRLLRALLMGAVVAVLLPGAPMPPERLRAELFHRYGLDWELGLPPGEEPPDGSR
Assay: EMSA
Settings: EMSA: 10 mM Tris-HCl pH 7.5, 50 mM NaCl, 10 mM MgCl2, 1 mM EDTA, 1 mM DTT, 5% glycerol, 0.1 ug/ul poly(dI-dC), 0.3 nM DNA; temperature not given

Row | Sequence | binding
1 | AGGAGCTGCCCGACTGGCGGTCCTTCTGGGAGCTGCCGCACGACATCGTCGATGTGCGCGGCAACCACTTCACCATGATGGAGGACCACTCCCTCCCCACCGCCCAGGCCATCGAGGACTGGCTGGAGCGACT (double strand) [elaF promoter] | binds
2 | GCGACGTCCACCGCCGTCTCCTTCCCGCTCATTCGCCCGCCAGGATCAGATCGACCGTGTCCTGGAACTCGTCCGCCTTCACCAGCACCTTGGTGCGCTCCACCCCGTCCTCGACGGTGAAGCAGCGCCTGCCGATCAGCACGATCTTTCCGTTGTCCGTGGCCCGGCTGCGGAAGGTGGTCCCGGCGAGCACCGAGTCCTGTGCGTAGTCGTCCAGGCTGTCCAGCCGCACCGCGTCCCAGCCGGACGGGTCGGCCAGCTCCGGCCGGAACCGGTACACCGGCTGCCAGCCGCTCTC (double strand) [gdmM promoter] | binds
3 | GCTCACCGACCCCGCGCACGAGGTGCTGGTCATCACGATGGCCGACCGGTTCGGCCCGCACGGCGCCGTCGGCATCGTGCTGCTGGAACGCCACCCGGCGGTGTGGCATCTGAAACTGCTCGCCACCTCCTGCCGTGTGGTCTCCTACGGCGCCGGGTCCACCCTGCTGAACTGGCTGGCCGACCAGGCGGCGCGTGCCGGGGTGCATCTGGCCGCCGACTTCCGGCGCACCGACCGCAACCGGATGATGGAGGTCGCCTACCGCTTCGCCGGGTTCGCCGACGCCGACTGCGCCTGCAC (double strand) [gdmN promoter] | binds
